This passage reports IC50, cellular Tau aggregation assay and Imax (maximal efficacy results from patent publication US20210139574A1.

The target of the assay is Tau seeds: brain fraction from transgenic mice expressing human Tau P301S (human), P10636. Nature of the assay: cell-based or functional assay.
Sequence of Tau seeds: brain fraction from transgenic mice expressing human Tau P301S (human), P10636 (P10636 other isoform, or with tags, fused parts or gaps P301S P301S): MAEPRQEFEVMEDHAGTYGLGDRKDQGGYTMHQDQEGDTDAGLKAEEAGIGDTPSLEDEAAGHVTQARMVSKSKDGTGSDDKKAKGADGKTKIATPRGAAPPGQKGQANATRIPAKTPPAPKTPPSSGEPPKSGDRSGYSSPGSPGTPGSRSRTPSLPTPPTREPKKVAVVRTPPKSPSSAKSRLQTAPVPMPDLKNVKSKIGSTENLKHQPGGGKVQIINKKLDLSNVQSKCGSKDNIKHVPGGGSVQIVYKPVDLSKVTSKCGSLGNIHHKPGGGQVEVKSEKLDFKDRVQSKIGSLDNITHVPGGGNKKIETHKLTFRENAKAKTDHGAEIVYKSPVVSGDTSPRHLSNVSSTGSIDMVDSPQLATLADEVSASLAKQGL

B1: AB1 having a murinised VL of SEQ ID NO: 9 and a murinised VH of SEQ ID NO.: 10 (antibody, V domains shown)
VL: DVVMTQSPASLAVSLGQRATISCQASQSVSSYLAWYQQKPGQPPKLLIYAASYLASGVPSRFKGSGSGTEFTLNIHPVEEEDAATYYCQQGYTRTDIDNTFGGGTKLEIK
VH: QVQLKESGPGLVAPSQSLSITCTVSGIDLSTWRMNWVRQPPGKGLEWIGIIGTGGRTYYANWAKGRFSISKDSTQVFLKMNSLQTEDTATYFCARLGANNNGYPLDLWGAGTTVTVSS
In turn, B1 registered an IC50, cellular Tau aggregation assay of 8 nM and an Imax (maximal efficacy at 300 nM), cellular Tau aggregation assay of 62%.
